Values of other authors in patent EP0759087B1, “COMPOSITIONS AND METHODS FOR TARGETING GENE DELIVERY VEHICLES” (CHIRON CORPORATION, priority 1994, dated 1995).
Where no end group is shown, it is not given here.

Molecular target: receptor on melanocytes (Homo sapiens, UniProt Q01726)
Conditions: no source given, read-out: receptor affinity (KD)

receptor on melanocytes, sequence (Q01726 whole entry): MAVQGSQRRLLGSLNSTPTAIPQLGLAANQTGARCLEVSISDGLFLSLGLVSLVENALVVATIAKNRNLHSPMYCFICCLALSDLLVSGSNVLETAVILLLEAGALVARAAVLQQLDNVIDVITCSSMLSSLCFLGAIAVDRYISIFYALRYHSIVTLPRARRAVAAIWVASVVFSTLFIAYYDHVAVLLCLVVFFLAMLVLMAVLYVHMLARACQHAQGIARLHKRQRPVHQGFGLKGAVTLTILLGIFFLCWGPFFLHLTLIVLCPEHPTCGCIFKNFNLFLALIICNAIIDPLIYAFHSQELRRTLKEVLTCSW

Question: With “S-Y-S-M-E-H-F-R-W-G-L-P-V-NH2 (SYSMEHFRWGLPV-NH2) [MSH, 13 amino acid peptide that is specifically recognized by a receptor on melanocytes]” as the substance, how does the Kd read?
Answer: The Kd was roughly 10 nM.
